± gives the standard error. For some of these results: This sample holds only a part of the variants without activity.
B1: glmS ribozyme (parent)
chain: AUAAAAGCGCCAGAACUACAGAAAUGUAGUUGACGAGGAGGAGGUUUAUCGAAUUUUCGGCGGAUGCCUCCAAA

Experiments:
Details in all cases: with glucosamine-6-phosphate
[1] = variants of: B1; experiment: kcat; higher = faster cleavage; RNA array
How it was run: (§1)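 Sequenced MiSeq chips were the platform: E. coli RNA polymerase transcribed barcoded ribozyme variants on them in situ, and a hybridised Cy3 probe tracked these at 37 °C. After glucosamine-6-phosphate (40 μM to 10 mM) in HEPES/KCl/Mg(OAc)2 buffer was flowed in, tiles were imaged over ~14 h. Signals normalised to baseline and to non-cleaving reference variants were reduced to per-tile medians and fit to one- or two-exponential decays to obtain kobs. kcat and KM were derived through weighted Michaelis–Menten fits across concentrations.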

[2] = variants of: B1; experiment: KM; higher = weaker cofactor use; RNA array
How it was run: as §1

[3] = variants of: B1; experiment: self-cleavage kobs at 160 uM GlcN6P; higher = faster cleavage; RNA array
How it was run: as §1

[4] = variants of: B1; experiment: self-cleavage kobs at 640 uM GlcN6P; higher = faster cleavage; RNA array
How it was run: as §1

[5] = variants of: B1; experiment: self-cleavage kobs at 2500 uM GlcN6P; higher = faster cleavage; RNA array
How it was run: as §1

[6] = variants of: B1; experiment: self-cleavage kobs at 10000 uM GlcN6P; higher = faster cleavage; RNA array
How it was run: as §1

[7] = variants of: B1; experiment: self-cleavage kobs at 40 uM GlcN6P; higher = faster cleavage; RNA array
How it was run: as §1

Variant	kcat [1] [s⁻¹]	KM [2] [µM]	self-cleavage kobs at 160 uM GlcN6P [3] [s⁻¹]	self-cleavage kobs at 640 uM GlcN6P [4] [s⁻¹]	self-cleavage kobs at 2500 uM GlcN6P [5] [s⁻¹]	self-cleavage kobs at 10000 uM GlcN6P [6] [s⁻¹]	self-cleavage kobs at 40 uM GlcN6P [7] [s⁻¹]
AUAAAAGCGCCAGAACUACAGAAAUGUAGUUGACGAUGAGGAGGUUUAUCGAAUUUUCGGCGGAUGCCUUUAAA	1.13e-05 ± 3.2e-06	–	–	–	–	–	–
AUAAAAGCGCCUGAACUACAGAAAUGUAGUUGACGAGGAGGAGGUUUAUCGAAUUUUCGGCGGCUGCCUCCAAA	0.000692 ± 7.8e-05	3580 ± 660	4.03e-05 ± 1.6e-05	0.000107 ± 1.6e-05	0.000264 ± 3.9e-05	0.000531 ± 7.6e-05	–
AUAAAAGCGCCAGAACUACAGAAAUGUAGUUGACGAGGAGGAGGUUAAUCGAAUUUUCGGCGGAUGCCUCGAAA	0.000753 ± 9.5e-05	1130 ± 300	0.000142 ± 4.2e-05	0.000227 ± 5.2e-05	0.00055 ± 0.00011	0.000682 ± 9.3e-05	2.61e-05 ± 8.5e-06
AUAAAAGGGCCAGAACUACAGAAAUGUAGUUGACGAGGAGGAGGUUUAUCGAAUUUUCGACGGAUGCCUCCAAA	< 1e-05	–	–	–	–	< 1e-05	< 1e-05
AUAAAAGCGCAAGAACUACAGAAAUGUAGUUGACGAGGAUGAGGUUUAUCGAAUUUUCGGCGGAUGCCUCCAAA	1.13e-05 ± 2e-06	–	< 1e-05	< 1e-05	–	–	–
AUAAAAGCACCAGAACUACAGAAAUGUAGUUGACGAGGAGGAGGUUUAUCGAAUUUUCGGCGGAUGACUCCAAA	< 1e-05	–	< 1e-05	–	–	–	< 1e-05
AUAAAAGCGCCAGUACUACAGAAAUGUAGUUGACGAGGAGGAGGUUUAUCGAAUUUUCGGCGGAUUCCUCCAAA	0.000298 ± 3.6e-05	2140 ± 550	4.39e-05 ± 1.8e-05	6.34e-05 ± 1.1e-05	0.000175 ± 2.9e-05	0.000243 ± 2.6e-05	–
AUAAAAGCGCCAGAACUACAGAAAUGUAGUUGACGAGGAGGAGGUUUAUGGAAUUUUCGGCGGAUGCCUGCAAA	0.000103 ± 1.8e-05	–	0.000142 ± 9.9e-06	0.000112 ± 1.2e-05	9.3e-05 ± 1e-05	8.05e-05 ± 8.7e-06	7.4e-05 ± 7.4e-06
AUAAAAGCGCCACAACUACAGAAAUGUAGCUGACGAGGAGGAGGUUUAUCGGAUUUUCGGCGGAUGCCUCCAAA	1.64e-05 ± 4.9e-06	–	–	–	–	–	–
AUAAAAGCGCCGGAACUACAGAAAUGUAGUUGACGAGGAGGAGGUUUAUCGAAUUUUCGGCGGAUGCCUCCAAA	0.00143 ± 6.1e-05	4240 ± 270	5.14e-05 ± 1.6e-06	0.000189 ± 3.5e-06	0.000587 ± 2.8e-05	0.001 ± 1.6e-05	1.01e-05 ± 1.5e-06
AUAAAAGCGCCAGUACUACAGAAAUGUAGUUGACGAGGACGAGGUUUAUCGAAUUUUCGGCGGAUGCCUCCAAA	0.000633 ± 5.1e-05	1980 ± 320	5.2e-05 ± 9.2e-06	0.000142 ± 1.5e-05	0.000391 ± 4.2e-05	0.000522 ± 3.7e-05	2.05e-05 ± 9e-06
AUAAAAGCGCCAGAGCUACAGAAAUGUAGUUGACGAGGAGGAGGUUUAUCGAAUUUUCGGCGGAUGCUUCCAAA	0.00322 ± 0.00055	1130 ± 300	0.00032 ± 7.2e-05	0.00112 ± 0.00019	0.00139 ± 0.00047	0.00316 ± 0.00032	0.000128 ± 1.5e-05
AUAAAAGCGCCAGAACUACAGAAAUGUAGUUGACGAAGAGGAAGUUUAUCGAAUUUUCGGCGGAUGCCUCCAAA	2.89e-05 ± 3.1e-06	–	< 1e-05	–	–	2.52e-05 ± 8.5e-06	< 1e-05
AUAAAAGCGCCAGAACUACAGAAAUGUAGUUGACGAGGAGGAGGUUUAUCGACUUUUCGGCGGAUACCUCCAAA	0.00434 ± 0.0011	1670 ± 640	0.000292 ± 6.4e-05	0.00107 ± 0.00017	0.00288 ± 0.00047	0.00374 ± 0.00053	0.000154 ± 2.2e-05
AUAAAAGCGCCAGAACUACAGAAAUGUAGUUGACGAGGAGGAGGUUUAUCGAAUUUUCGGCGAAUGCCUACAAA	1.85e-05 ± 4.5e-06	–	–	–	–	–	–
AUAAAAGCGCCAGAUCUACAGAAAUGUAGUUGACGGGGAGGAGGUUUAUCGAAUUUUCGGCGGAUGCCCACAAA	1.84e-05 ± 4.3e-06	–	–	–	–	–	–
AUAAAAGCGCAAGAACUACAGAAAUGUAGAUGACGAGGAGGAGGGUUAUCGAAUUUUCGGCGGAUGCCUCCAAA	2.81e-05 ± 1.1e-06	3690 ± 410	–	–	–	–	–
AUAAAACCGCCAGAACUACAGAAAUGUAGUUGACGACGAGGAGGUUUAUCGAAUUUUCGGCGGAUGCCUCCAAA	< 1e-05	–	–	–	< 1e-05	< 1e-05	< 1e-05
